T1: hCD112R mFC recombinant protein (human; murine, UniProt Q6DKI7 41-160)
T1 construct: range 41-160; expressed in 293E cells; also called hCD112R ECD mFC; hCD112R-ECD-mFC; not shown: murine IgG2a Fc domain (MX2-mFc vector)
T1 sequence (looked up): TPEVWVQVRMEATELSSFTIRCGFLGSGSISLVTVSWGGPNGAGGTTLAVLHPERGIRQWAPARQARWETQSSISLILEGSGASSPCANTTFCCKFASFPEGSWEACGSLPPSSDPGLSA

T2: human CD112R on Jurkat CD112R effector cells (human, UniProt Q6DKI7 1-326)
T2 sequence (looked up): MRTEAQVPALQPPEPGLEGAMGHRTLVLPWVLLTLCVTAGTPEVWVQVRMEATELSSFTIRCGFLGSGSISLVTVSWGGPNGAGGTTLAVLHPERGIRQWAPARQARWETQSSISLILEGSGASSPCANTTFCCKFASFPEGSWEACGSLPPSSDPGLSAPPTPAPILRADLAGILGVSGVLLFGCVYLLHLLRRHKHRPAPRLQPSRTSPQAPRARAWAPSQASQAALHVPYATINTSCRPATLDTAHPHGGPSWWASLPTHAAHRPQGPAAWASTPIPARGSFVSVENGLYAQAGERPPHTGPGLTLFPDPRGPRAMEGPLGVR


Tests used:
[1] = target: T1, hCD112R mFC recombinant protein; experiment: FACS competition, hCD112R mFc on CHO CD112 cells; IC50 COM701/IC50 antibody
Procedure: (§1) Cells CHO CD112 overexpressing human CD112 were co-incubated with a hCD112R mFc protein solution (5 μg/mL) prepared in a staining buffer (PBS+1% FBS), and the humanized anti-CD112R antibodies or the control antibodies at different concentrations (initial concentration: 100 μg/mL, 3-fold dilution, 10 concentration gradients) at 4° C. for 30 min. Unbound antibodies were then washed with a staining buffer and the cells were incubated with 1% (v/v) goat anti-mouse IgG Fc fluorescent secondary antibodies (Jackson ImmunoResearch) prepared in a staining buffer at 4° C. for 30 min in the dark. Finally, the cells were collected by using a flow cytometer (BD Canto II), and the fluorescent antibodies bound to the cell surface were detected. Raw data were analyzed by using FlowJo to obtain MFI values, and a four-parameter curve fitting was performed by using GraphPad Prism software to obtain IC₅₀ values. The positive control and the negative control were COM701 (anti-CD112R antibody, Compugen, obtained by expression and purification according to the sequences in US20180280506A1) and the anti-KLH hu-IgG4 antibody, respectively.

[2] = target: T1, hCD112R mFC recombinant protein; experiment: FACS competition, hCD112R mFc on CHO CD112 cells
Procedure: as §1

[3] = target: T2, human CD112R on Jurkat CD112R effector …; experiment: cell-based or functional assay
[4] = target: T1, hCD112R mFC recombinant protein; experiment: ELISA, coated hCD112R-ECD-mFC
Procedure: (§2) A plate was coated with a hCD112R-ECD-mFC protein (1.5 μg/mL) at a fixed concentration, and the humanized anti-CD112R antibodies diluted in a gradient (initial concentration: 1 μg/mL, 2.5-fold gradient dilution, 12 concentration gradients in total) were added to bind to the antigen. HRP-conjugated goat anti-human antibody IgG (Fc specific) (Sigma, A0170) was subjected to a 5000-fold dilution and used as a detection antibody for detection. The color development was performed with 0.1 mg/mL TMB, and finally stopped with 2 M hydrochloric acid. The plate was read at 420 nm/620 nm. EC₅₀ was obtained by fitting with a four-parameter logistic regression (4PL) model. The […] were COM701 (anti-CD112R antibody, Compugen, obtained by expression and purification according to the sequences in US20180280506A1) and the anti-KLH hu-IgG4 antibody.

[5] = target: T1, hCD112R mFC recombinant protein; experiment: ELISA, coated hCD112R-ECD-mFC; EC50 COM701/EC50 antibody
Procedure: as §2

| Relative activity (%) [1] [%] | IC50 [2] [µg/mL] | EC50, CD112R/CD112 reporter [3] [µg/mL] | Relative activity (%), EC50 COM701/EC50 antibody [3] [%] | EC50 [4] [µg/mL] | Relative activity (%) [5] [%] | Binder |
| --- | --- | --- | --- | --- | --- | --- |
| 127 | 2.82 | 0.0471 | 119 | 0.00404 | 150 | Hu32 (antibody, IgG4, V domains shown, humanized IgG4) VH: EVQLVESGGGLVQPGGSLRLSCAASGFTFSSYHMSWVRQAPGKGLELVAAISRDGDSTYYPDTVKGRFTISRDDAENSLYLQMNSLRAEDTAVYYCSRHEDYFGFAMDSWGQGTLVTVSS VL: AIQMTQSPSSLSASVGDRVTITCKASQSVTNDVAWYQQKPGKAPKLLIYYVSNHYTGVPSRFSGSGSGTDFTLTISSLQPEDFATYFCQQAYRSPWTFGQGTKLEIK |
| 94.2 | 4.22 | 0.0385 | 186 | 0.00295 | 144 | Hu4 (antibody, IgG4, V domains shown, humanized IgG4; also called Hu-04) VH: EVQLVESGGGLVQPGGSLRLSCAASGFTFSSYHMSWVRQAPGKGLELVAAINSNDINTYYLDTVKGRFTISRDIAKNSLYLQMNSLRAEDTAVYYCARHEDYYGFAMDYWGQGTLVTVSS VL: DIVMTQSPDSLAVSLGERATINCKASQSVSNDVAWYQQKPGQPPKLLIYYVSHRFTGVPDRFSGSGSGTDFTLTISSLQAEDVAVYFCHQAYRSPWTFGQGTKLEIK |
| 144 | 2.48 | 0.0404 | 127 | 0.00411 | 139 | Hu19 (antibody, IgG4, V domains shown, humanized IgG4) VH: EVQLVESGGGLVKPGGSLRLSCAASGFTFSSYHMSWVRQAPGKGLELVSAISRDGDSTYYPDTVKGRFTISRDDAENSLYLQMNSLRAEDTAVYYCSRHEDYFGFAMDSWGQGTLVTVSS VL: DIVMTQSPDSLAVSLGERATINCKASQSVTNDVAWYQQKPGQPPKLLIYYVSNHYTGVPDRFSGSGSGTDFTLTISSLQAEDVAVYFCQQAYRSPWTFGQGTKLEIK |
| 95.5 | 4.17 | 0.0377 | 199 | 0.00257 | 153 | Hu10 (antibody, IgG4, V domains shown, humanized IgG4) VH: EVQLVESGGGLVKPGGSLRLSCAASGFTFSSYHMSWVRQAPGKGLELVSAINSNDINTYYLDTVKGRFTISRDIAKNSLYLQMNSLRAEDTAVYYCARHEDYYGFAMDYWGQGTLVTVSS VL: DIVMTQSPDSLAVSLGERATINCKASQSVSNDVAWYQQKPGQPPKLLIYYVSHRFTGVPDRFSGSGSGTDFTLTISSLQAEDVAVYFCHQAYRSPWTFGQGTKLEIK |
| 85.7 | 2.81 | 0.0223 | 302 | 0.00553 | 166 | Hu55 (antibody, IgG4, V domains shown, humanized IgG4) VH: EVQLVESGGGLVQPGGSLRLSCAASGFTFSSYHMSWIRQAPGKGLELVAAINSNGINTYYLDTVKGRFTISRDNAKNSLYLQMNSLRAEDTAVYYCARHEDYYGFAMDYWGQGTLVTVSS VL: DIVMTQSPDSLAVSLGERATINCKASQSVTNDVAWYQQKPGQPPKLLIYYVSNHYTGVPDRFSGSGSGTDFTLTISSLQAEDVAVYFCQQAYRSPWTFGQGTKLEIK |
| 74 | 3.25 | 0.0216 | 277 | 0.00488 | 172 | Hu58 (antibody, IgG4, V domains shown, humanized IgG4) VH: EVQLVESGGGLVQPGGSLRLSCAASGFTFSSYHMSWIRQAPGKGLELVAAINSNGINTYYLDTVKGRFTISRDNAKNSLYLQMNSLRAEDTAVYYCARHEDYYGFAMDYWGQGTLVTVSS VL: DIVMTQSPDSLAVSLGERATINCKASQSVSNDVAWYQQKPGQPPKLLIYYVSHRFTGVPDRFSGSGSGTDFTLTISSLQAEDVAVYFCHQAYRSPWTFGQGTKLEIK |
| 97.5 | 2.47 | 0.0307 | 214 | 0.00495 | 176 | Hu49 (antibody, IgG4, V domains shown, humanized IgG4) VH: EVQLVESGGGLVKPGGSLRLSCAASGFTFSSYHMSWVRQAPGKGLELVSAINSNGINTYYLDTVKGRFTISRDNAKNSLYLQMNSLRAEDTAVYYCARHEDYYGFAMDYWGQGTLVTVSS VL: DIVMTQSPDSLAVSLGERATINCKASQSVTNDVAWYQQKPGQPPKLLIYYVSNHYTGVPDRFSGSGSGTDFTLTISSLQAEDVAVYFCQQAYRSPWTFGQGTKLEIK |
| 142 | 2.52 | 0.0507 | 110 | 0.00339 | 179 | Hu31 (antibody, IgG4, V domains shown, humanized IgG4) VH: EVQLVESGGGLVQPGGSLRLSCAASGFTFSSYHMSWVRQAPGKGLELVAAISRDGDSTYYPDTVKGRFTISRDDAENSLYLQMNSLRAEDTAVYYCSRHEDYFGFAMDSWGQGTLVTVSS VL: DIVMTQSPDSLAVSLGERATINCKASQSVTNDVAWYQQKPGQPPKLLIYYVSNHYTGVPDRFSGSGSGTDFTLTISSLQAEDVAVYFCQQAYRSPWTFGQGTKLEIK |
| 97 | 3.7 | 0.0412 | 157 | 0.00403 | 165 | Hu25 (antibody, IgG4, V domains shown, humanized IgG4) VH: EVQLVESGGGLVQPGGSLRLSCAASGFTFSSYHMSWVRQAPGKGLELVAAISRDGDSTYYPDTVKGRFTISRDNAKNSLYLQMNSLRAEDTAVYYCSRHEDYFGFAMDSWGQGTLVTVSS VL: DIVMTQSPDSLAVSLGERATINCKASQSVTNDVAWYQQKPGQPPKLLIYYVSNHYTGVPDRFSGSGSGTDFTLTISSLQAEDVAVYFCQQAYRSPWTFGQGTKLEIK |
| 78.6 | 5.06 | 0.144 | 48.6 | 0.00432 | 91 | Hu7 (antibody, IgG4, V domains shown, humanized IgG4; also called Hu-07) VH: EVQLVESGGGLVKPGGSLRLSCAASGFTFSSYHMSWVRQAPGKGLELVSAINSNDINTYYLDTVKGRFTISRDIAKNSLYLQMNSLRAEDTAVYYCARHEDYYGFAMDYWGQGTLVTVSS VL: DIVMTQSPDSLAVSLGERATINCKASQSVTNDVAWYQQKPGQPPKLLIYYVSNHYTGVPDRFSGSGSGTDFTLTISSLQAEDVAVYFCQQAYRSPWTFGQGTKLEIK |
| 164 | 2.19 | 0.0252 | 192 | 0.00433 | 132 | Hu13 (antibody, IgG4, V domains shown, humanized IgG4) VH: EVQLVESGGGLVKPGGSLRLSCAASGFTFSSYHMSWVRQAPGKGLELVSAISRDGDSTYYPDTVKGRFTISRDNAKNSLYLQMNSLRAEDTAVYYCSRHEDYFGFAMDSWGQGTLVTVSS VL: DIVMTQSPDSLAVSLGERATINCKASQSVTNDVAWYQQKPGQPPKLLIYYVSNHYTGVPDRFSGSGSGTDFTLTISSLQAEDVAVYFCQQAYRSPWTFGQGTKLEIK |

Source: patent publication US20240309087A1 (SHANGHAI JUNSHI BIOSCIENCES, published 2024)
